Laboratory results reported in US20140271456A1, “RADIOTRACER IMAGING USING SODIUM IODIDE SYMPORTER POLYPEPTIDES” (Mayo Foundation for Medical Education and Research, priority 2013, published 2014).
Numbering of substitutions follows the chain as printed. “Also recorded” adds a separate entry of the source.

Legend:
[1] = test system: NIS expressing organs (thyroid and stomach) and BXPC-3-hNIS tumor; experiment: SPECT/CT dual isotope imaging of nude mice with BXPC-3-hNIS tumors; settings: four hours after i.p. 250 μCi of each isotope
Procedure: FIG. 6. SPECT/CT dual isotope imaging of nude mice implanted with SQ BXPX-3-hNIS tumors. Animals were injected i.p with 250 μCi ^125I and 250 μCi ^99mTc and imaged four hours later. Images were processed using Vivo Quant software. The scale was adjusted manually to get minimal yellow in the tissues.
The stomach and thyroid signals were subtract from the SPECT dataset (FIG. 5). In this experiment, nude female mice (5-week of age) were injected with 3×10^6 BXPC-3-hNIS cells. When tumors reached a diameter of 1 cm, mice were injected I.P. with ^125I sodium iodide (250 μCi) and/or ^99mTc-pertechneate (250 μCi). Four hours post isotope administration, SPECT/CT data were acquired with U-SPECT-II (MiLabs). The SPECT emission data were collected in dual-energy windows to separate the gamma emision energy counts from ^99mTc (140 keV) and ^125I (35 keV). […] Radioiodide thyroid signal subtraction was performed by normalizing the ^125I SPECT data to thyroid tissue on the ^99mTc SPECT data using the image arithmetic tools available in PMOD image fusion software. This was performed in three steps by (1) calculating the normalization factor (i.e., the inverse ratio between the maximum voxel value corresponding to the thyroid tissue on the ^125I SPECT and the maximum voxel value corresponding to the thyroid tissue on the ^99mTc SPECT data set), (2) multiplying each voxel in the ^125I SPECT dataset by this normalization factor, and (3) subtracting the normalized ^125I SPECT dataset from ^99mTc SPECT data set to generate a thyroid subtraction SPECT dataset (FIG. 5C). Similarly, ^99mTc stomach signal subtraction was performed by (1) calculating the normalization factor which in this case is the inverse ratio of the maximum voxel value corresponding to the stomach tissue on the ^99mTc SPECT to the maximum voxel value corresponding to the stomach tissue in the ^125I SPECT data set, (2) multiplying each voxel in the ^99mTc SPECT dataset by this normalization factor, and (3) subtracting the normalized ^99mTc SPECT dataset from ^125I SPECT data set to generate a stomach subtraction SPECT dataset (FIG. 5B).

[2] = test system: NIS polypeptide-mediated uptake in stomach; experiment: NIS imaging of a mouse fed oral CT contrast agent by gavage; assay type: in vivo; settings: mouse with NIS transduced liver, then imaged
Excerpt: In the following example, ingestion of barium sulfate was used to enable and enhance discrimination of NIS expression in the liver.

NIS expressing cells = settings: less efficiently than iodide; cited from earlier work
NIS = molecular target: T1, NIS (Homo sapiens, UniProt Q92911); experiment: iodide mediated quenching of YFP-H148Q/I152L fluorescence; assay type: cell-based; settings: 5 mM KClO4; quenching mediated by 200 mM NaI; FIG. 3
T1 construct: expressed in transfected cells; host or cells: cells transduced with the lentiviral vector
T1 sequence (Q92911 1-643): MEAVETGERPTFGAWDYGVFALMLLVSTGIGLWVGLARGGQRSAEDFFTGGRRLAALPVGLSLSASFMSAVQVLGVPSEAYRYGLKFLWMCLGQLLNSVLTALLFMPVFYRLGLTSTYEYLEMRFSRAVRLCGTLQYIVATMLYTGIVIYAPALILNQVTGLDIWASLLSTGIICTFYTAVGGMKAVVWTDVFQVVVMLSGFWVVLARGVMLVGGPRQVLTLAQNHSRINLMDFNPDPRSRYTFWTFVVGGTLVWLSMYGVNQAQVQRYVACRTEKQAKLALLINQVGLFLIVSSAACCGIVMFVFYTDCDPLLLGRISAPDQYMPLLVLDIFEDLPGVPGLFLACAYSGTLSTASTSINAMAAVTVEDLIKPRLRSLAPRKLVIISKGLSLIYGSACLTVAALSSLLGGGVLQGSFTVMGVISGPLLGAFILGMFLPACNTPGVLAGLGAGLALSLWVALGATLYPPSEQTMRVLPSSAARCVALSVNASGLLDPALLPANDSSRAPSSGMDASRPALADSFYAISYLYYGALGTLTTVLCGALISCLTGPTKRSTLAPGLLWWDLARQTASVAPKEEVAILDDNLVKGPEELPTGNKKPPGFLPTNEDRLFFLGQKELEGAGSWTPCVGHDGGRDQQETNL
Procedure: 72 hours post infection, the cells are subjected to two color flow cytometry to determine the percentage of cells that express YFP-H148Q/I152L and are tagged with anti-HA antibody conjugated to Alexa Fluor 647. To determine the percentage hNIS variants that can transport iodide into the cell, infected cells are treated with 200 μM NaI. The quenching of YFP-H148Q/I152L fluorescence (output for intracellular iodide uptake) is analyzed by flow cytometry.
Five million cells are infected at a moi of 1 with the lentiviral library transducing HA-hNIS variants. On the third day post infection, the cells are expanded to increase the number of cells expressing each unique NIS variant to limit the potential of it being lost during the selection procedure. On day 5, infected cells that fluoresce brightly are selected for by fluorescence-activated cell sorting (FACS) and collected in HBSS/HEPES buffer Immediately thereafter, these cells are incubated for 5 minutes with KClO4 at a concentration that inhibits iodide transport by non-mutated NIS. Then, NaI is added to the cells to a finale concentration of […], and the cells are incubated for 10 minutes at 37° C. Cells whose fluorescence is quenched in the presence of KClO4 are selected for by flow sorting. […]

Mel624 cells = experiment: radiotracer uptake assay in Mel624 cells stably expressing NIS polypeptides; assay type: cell-based, human; settings: for uptake of pertechnetate (Technetium-99m) / uptake of radioiodide (Iodine-125): Mel624 cells stably expressing the NIS polypeptide, 37° C. for 1 hour, +/−300 μM KClO4, gamma counter
Procedure: Mel624 cells stably expressing a wild-type human NIS polypeptide (Mel-NIS) or one of two mutant NIS polypeptides (Mel-NIS-93E or Mel-NIS-93Q) were plated in 96-well plates at a density that would lead them to confluency on the day of the uptake assay. 1× Hank's balanced salt solution with calcium, magnesium (HBSS) (Cellgro) and 1 mM HEPES was adjusted to pH 7.3 using KOH (HBBS-HEPES) on the day of the assay. Culture medium was removed from the cells, and 150 μL of HBSS-HEPES+/−300 μM KClO4 was added to the wells. The cells were incubated for 10 minutes at room temperature prior to the addition of radiotracer. Radiotracers, ^125I and ^99mTc, were diluted in HBSS-HEPES to about 70,000 to 100,000 CPM/25 μL (CPM, counts per minute). 25 μL of radiotracer was added to the cells in HBSS-HEPES+/−KClO4, and the cells were incubated at 37° C. for 1 hour. The cells were then washed twice with cold HBSS-HEPES buffer and lysed to release the intracellular radiotracer by adding 200 μL 1M NaOH. Lysates were transferred to strip tubes and quantified using a gamma counter.

[3] = test system: BxPC3 cells (human pancreatic tumor cells); experiment: 123I/99mTc subtraction SPECT of BxPC3 tumors expressing NIS or NIS-93E in athymic mice; assay type: in vivo; settings: subcutaneous BxPC3 tumors; four hours after i.p. 123I and 99mTcO4
Procedure: Image subtraction is used to discriminate a tumor that concentrates only one of two NIS isotopes from organs that concentrate both isotopes (e.g., thyroid gland, stomach, and salivary glands). BxPC3 cells (human pancreatic tumor cells) stably expressing either wild-type human NIS polypeptides or human mutant NIS-93E polypeptides are implanted subcutaneously in the flanks of athymic mice. Once tumors grow to a diameter of 5-8 mm, ^123I/^99mTc subtraction SPECT is performed using a dual-detector SPECT camera. Four hours after the intraperitoneal administration of 250 μCi ^123I sodium iodide and 250 μCi ^99mTcO4, SPECT/CT data are acquired. The SPECT emission data are collected in dual-energy windows to separate the ^99mTc and ^123I counts. The ^99mTc window is centered at 140 keV, and the ^123I window is placed with a 4% offset above 159 keV to minimize the spillover of the ^99mTc photopeak into the much less intense ^123I photopeak. SPECT reconstruction is performed for each of the two acquisition windows. ^123I SPECT voxel intensities on thyroid tissue are normalized to the corresponding ^99mTc SPECT data, and in this way a normalization factor is determined Each voxel in the ^123I SPECT dataset is then multiplied by this normalization factor, and the normalized ^123I SPECT data is subtracted from the ^99mTc SPECT data to create a subtraction SPECT dataset. […]

## [O]=[99Tc](=[O])(=[O])[O-] [^99mTc, ^99mTc-pertechneate]
[1]
  accumulation in stomach: preferentially accumulates
  accumulation in tumor (BXPC-3-hNIS): does not discriminate between the two isotopes; also recorded: accumulate both isotopes to similar concentrations

## [125I-].[Na+] [^125I, ^125I sodium iodide]
[1]
  accumulation in thyroid: preferentially accumulates
  accumulation in tumor (BXPC-3-hNIS): does not discriminate between the two isotopes; also recorded: accumulate both isotopes to similar concentrations

## O=S(=O)([O-])[O-].[Ba+2] [barium sulfate]
[2]
  isotope signals from the stomach: reduced isotope signals from the stomach
[2]; listed as oral contrast agent
  isotope signals from the stomach: significant reduction of the stomach signal

## [K+].[O-][Cl+3]([O-])([O-])[O-] [perchlorate, KClO4]
NIS expressing cells
  efficiency of concentration in NIS expressing cells compared to iodide anions: 10 fold
NIS
  effect on iodide mediated quenching of YFP-H148Q/I152L: inhibition

B1: NIS-93E: mutant human sodium iodide symporter polypeptide, amino acid sequence SEQ ID NO:1 (FIG. 4) (protein, listed as Homo sapiens)
chain: T1 sequence (Q92911 1-643) with G93E
Mel624 cells
  iodide versus TcO4 concentrating efficiency: concentrate iodide with greater efficiency than TcO4
  uptake of pertechnetate (Technetium-99m): not pertechnetate
  uptake of radioiodide (Iodine-125): capable of up-taking radioiodide
Mel624 cells; FIGS. 1A and 1B
  concentration of Iodine-125 uptake in tumor cells as compared to non-mutated NIS (NIS WT): decrease
Mel624 cells; listed as G93E
  uptake of pertechnetate (Technetium-99m): not Technetium-99m
  uptake of radioiodide (Iodine-125): selectively transports Iodine-125
Mel624 cells; listed as NIS-G93E
  uptake of pertechnetate (Technetium-99m): not Technetium-99m
  uptake of radioiodide (Iodine-125): transport selectively Iodine-125
[3]
  isotope concentration by tumors expressing the polypeptide, subtraction SPECT: concentrate only iodide and not pertechnetate

B2: wild-type human NIS polypeptide: wild-type human sodium iodide symporter polypeptide (protein, UniProt Q92911 1-643, looked up)
Sodium/iodide cotransporter: T1 sequence (Q92911 1-643)
Mel624 cells
  uptake of pertechnetate (Technetium-99m): Substantial uptake
  uptake of radioiodide (Iodine-125): Substantial uptake
